Assay results taken from patent US20160251404A1 (Molecular Partners, published 2016).
Numbering of substitutions follows the chain as printed. Where two headings read alike, the source gives them in different places. One block for each binder: values may come before it.

Assays:
[1] = target: T1, recombinant human HGF (hepatocyte growth factor) (human, UniProt P14210 32-728); experiment: cell-based or functional assay
[2] = target: T1, recombinant human HGF (hepatocyte …); experiment: SPR (ProteOn), human HGF immobilized on GLC chip, DARPin injected, PBS 0.005% Tween 20
Experimental: SPR was measured using a ProteOn instrument (BioRad) and measurement was performed according standard procedures known to the person skilled in the art. The running buffer was PBS, pH 7.4, containing 0.005% Tween 20®. Human HGF was covalently immobilized on a GLC chip (BioRad) to a level of about 5000 resonance units (RU). The interaction of DARPin and HGF was then measured by injecting 200 μl running buffer (PBS containing 0.005% Tween®) containing serial dilutions of DARPins of concentration of […] (on-rate measurement), followed by a running buffer flow for 25 minutes at a constant flow rate of 100 μl/min (off-rate measurement). The signals (i.e. resonance unit (RU) values) of the interspots and a reference injection (i.e. injection of running buffer only) were subtracted from the RU traces obtained after injection of DARPin (double-referencing). From the SPR traces obtained from the on-rate and off-rate measurements the on- and off-rate of the corresponding DARPin HGF interaction can be determined. […] Dissociation constants (Kd) were calculated from the estimated on- and off-rates using standard procedures known to the person skilled in the art. […] As an example, Table 1 summarizes the Kd values for some of the selected DARPins.

[3] = target: T1, recombinant human HGF (hepatocyte …); experiment: cell-based or functional assay; remark: listed apart in the source
[4] = target: T1, recombinant human HGF (hepatocyte …); experiment: cell-based or functional assay; remark: listed apart in the source
[5] = target: T1, recombinant human HGF (hepatocyte …); experiment: receptor competition ELISA: DARPin premixed with human HGF, binding of HGF to coated c-Met Fc chimera detected with anti-HGF antibody
Experimental: The potency of anti-HGF DARPins to inhibit the binding of human HGF to its receptor c-Met was determined in a receptor competition ELISA. c-Met (Fc chimera; RnD systems, USA, 358-MT-100/CF) was pre-coated on a microplate. DARPins and HGF were premixed in PBSTC and incubated at room temperature for 0.5 hours. These preincubation mixtures were then transferred into the with c-Met precoated wells and any HGF that was not blocked by the DARPins was bound by the immobilized receptor. After washing away any unbound substances, an polyclonal antibody specific for HGF (RnD systems, USA, AF-294-NA) was added to the wells. After washing away any unbound substances, an horse radish peroxidase conjugated antibody (Novus Biologicals, USA, NB7357) binding to the polyclonal antibody specific for HGF was added to the wells. Following a wash to remove any unbound antibody-enzyme reagent, a substrate solution (Roche, Switzerland, 11484281001) was added to the wells and color was developing in proportion to the amount of HGF bound. The color development was stopped and the intensity of the color was measured at 405 nm. […] Example titration curves are given for a set of DARPins in FIG. 5. IC₅₀ values were calculated from such titration curves obtained as described above using standard procedures known to the person skilled in the art.

T1 sequence (P14210 32-728 limits assumed): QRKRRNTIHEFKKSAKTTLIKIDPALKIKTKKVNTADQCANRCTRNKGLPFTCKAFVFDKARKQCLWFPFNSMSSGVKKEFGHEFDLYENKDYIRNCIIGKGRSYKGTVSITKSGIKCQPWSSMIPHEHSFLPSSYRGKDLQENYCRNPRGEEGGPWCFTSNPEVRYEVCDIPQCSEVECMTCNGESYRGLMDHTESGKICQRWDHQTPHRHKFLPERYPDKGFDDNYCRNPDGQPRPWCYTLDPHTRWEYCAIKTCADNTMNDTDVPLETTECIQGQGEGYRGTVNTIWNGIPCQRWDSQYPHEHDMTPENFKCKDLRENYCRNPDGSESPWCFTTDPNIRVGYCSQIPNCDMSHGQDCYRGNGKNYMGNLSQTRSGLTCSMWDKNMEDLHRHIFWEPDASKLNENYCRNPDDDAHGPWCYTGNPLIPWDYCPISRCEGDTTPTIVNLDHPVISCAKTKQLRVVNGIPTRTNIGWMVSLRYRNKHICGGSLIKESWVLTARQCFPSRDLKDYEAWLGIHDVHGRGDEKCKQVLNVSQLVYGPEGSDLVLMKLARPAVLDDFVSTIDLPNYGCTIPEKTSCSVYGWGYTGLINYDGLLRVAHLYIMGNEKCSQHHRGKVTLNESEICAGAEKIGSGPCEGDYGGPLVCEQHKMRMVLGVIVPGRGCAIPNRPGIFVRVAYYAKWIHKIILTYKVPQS

B1: DARPin #42 (designed binder)
chain: MRGSHHHHHHGSDLGKKLLEAARAGQDDEVRILMANGADVNAKYEDGLTPLHLAAFYGHLEIVEVLLKHGADVNATDAWGHTPLHLAAHYGHLEIVEVLLKYGADVNAIDTLGYTPLHLAANFGHLEIVEVLLKNGADVNAQDKFGKTAFDISIDNGNEDLAEILQKLN
- % inhibition of HGF stimulated c-Met phosphorylation in A549 cells [1]: 98%
- IC50 of HGF stimulated c-Met phosphorylation in A549 cells [1]: 0.32 nM
- Kd [2]: 0.084 nM
- IC50 of U87 cell proliferation (BrdU) [3]: 82 nM

B2: DARPin #43 (designed binder)
chain: B1 chain with H89Y, A108T, I109H, T111K, L112E, Y114M, P116A, N122L, F123T
- % inhibition of HGF stimulated c-Met phosphorylation in A549 cells [1]: 101%
- IC50 of HGF stimulated c-Met phosphorylation in A549 cells [1]: 0.16 nM
- Kd [2]: 0.025 nM
- IC50 of U87 cell proliferation (BrdU) [4]: 72 nM
- IC50 [5]: 1.36 nM
- IC50 of U87 cell proliferation (BrdU) [3]: 71 nM

B4: DARPin #38 (designed binder)
chain: MRGSHHHHHHGSDLGKKLLEAARAGQDDEVRILMANGADVNATDANGFTPLHLAAFYGHLEIVEVLLKYGADVNAYDNFGLTPLHLAASYGHLEIVEVLLKNGADVYAQDKFGKTAFDISIDNGNEDLAEILQKLN
- % inhibition of HGF stimulated c-Met phosphorylation in A549 cells [1]: 88%
- IC50 of HGF stimulated c-Met phosphorylation in A549 cells [1]: 2.59 nM
- Kd [2]: 1.6 nM

B7: DARPin #57 (designed binder)
chain: MRGSHHHHHHGSDLGKKLLEAARAGQDDEVRILMANGADVNAHDYLGLTPLHLAASDGHLEIVEVLLKHGADVNAYDYNGLTPLHLAANNGHLEIVEVLLKYGADVNAFDVAGYTPLHLAAYFGHLEIVEVLLKYGADVNAQDKFGKTAFDISIDNGNEDLAEILQKLN
- % inhibition of HGF stimulated c-Met phosphorylation in A549 cells [1]: 100%
- IC50 of HGF stimulated c-Met phosphorylation in A549 cells [1]: 1.72 nM
- Kd [2]: 16.6 nM
- IC50 [5]: 1.71 nM
- IC50 of U87 cell proliferation (BrdU) [3]: 730 nM

B8: DARPin #51 (designed binder)
chain: MRGSHHHHHHGSDLGKKLLEAARAGQDDEVRILLKAGADVNAKDRYGDTPLHLAADIGHLEIVEVLLKAGADVNAEDYFGNTPLHLAASYGHLEIVEVLLKAGADVNAKDDYGNTPLHLAANTGHLEIVEVLLKAGADVNAQDKSGKTPADLAADAGHEDIAEVLQKLN
- % inhibition of HGF stimulated c-Met phosphorylation in A549 cells [1]: 81%
- IC50 of HGF stimulated c-Met phosphorylation in A549 cells [1]: 0.01 nM
- Kd [2]: 0.051 nM
- IC50 [5]: 0.62 nM
- IC50 of U87 cell proliferation (BrdU) [3]: 116 nM

B13: DARPin #58 (designed binder)
chain: MRGSHHHHHHGSDLGKKLLEAARAGQDDEVRILMANGADVNAHDYVGLTPLHLAASIGHLEIVEVLLKYGADVNASDYNGFTPLYLAANNGHLEIVEVLLKNGADVNATDSFGYTPLHLAAHYGHLEIVEVLLKNGADVNAQDKFGKTAFDISIDNGNEDLAEILQKLN
- % inhibition of HGF stimulated c-Met phosphorylation in A549 cells [1]: 89%
- IC50 of HGF stimulated c-Met phosphorylation in A549 cells [1]: 1.63 nM
- Kd [2]: 0.578 nM

Further lines, results first:

- % inhibition of HGF stimulated c-Met phosphorylation in A549 cells [1]: 99%
- IC50 of HGF stimulated c-Met phosphorylation in A549 cells [1]: 0.13 nM
- IC50 of U87 cell proliferation (BrdU) [3]: 113 nM
B3: DARPin #41 (designed binder)
chain: B1 chain with K68R, H89Y, Y90L, I109E, L112E, N122M, F123D, V129I, N135H

- % inhibition of HGF stimulated c-Met phosphorylation in A549 cells [1]: 72%
- IC50 of HGF stimulated c-Met phosphorylation in A549 cells [1]: 0.53 nM
- Kd [2]: 0.736 nM
B5: DARPin #56 (designed binder)
chain: MRGSHHHHHHGSDLGKKLLEAARAGQDDEVRILMANGADVNANDFLGLTPLHLAASTGHLEIVEVLLKYGADVNAIDAYGHTPLHLAANNGHLEIVEVLLKYGADVNAIDHFGYTPLHLAAMFGHLEIVEVLLKNGADVNAQDKFGKTAFDISIDNGNEDLAEILQKLN

- % inhibition of HGF stimulated c-Met phosphorylation in A549 cells [1]: 100%
- IC50 of HGF stimulated c-Met phosphorylation in A549 cells [1]: 0.2 nM
- Kd [2]: 0.148 nM
- IC50 of U87 cell proliferation (BrdU) [3]: 137 nM
B6: DARPin #33 (designed binder)
chain: MRGSHHHHHHGSDLGKKLLEAARAGQDDEVRILMANGADVNAHDYSGFTPLHLAAYYGHLEIVEVLLKHGADVNAFDDWGHTPLHLAARYGHLEIVEVLLKYGADVNAEDTEGYTPLHLAAMDGHLEIVEVLLKNGADVNAQDKFGKTAFDISIDNGNEDLAEILQKLN

- % inhibition of HGF stimulated c-Met phosphorylation in A549 cells [1]: 100%
- IC50 of HGF stimulated c-Met phosphorylation in A549 cells [1]: 0.85 nM
- Kd [2]: 0.528 nM
- IC50 of U87 cell proliferation (BrdU) [3]: 3280 nM
B9: DARPin #59 (designed binder)
chain: MRGSHHHHHHGSDLGKKLLEAARAGQDDEVRILMANGADVNADDSLGLTPLHLAAASGHLEIVEVLLKNGADVNAVDQNSFTPLYLAANNGHLEIVEVLLKNGADVNAFDWHGTTPLHLAAMFGHLEIVEVLLKNGADVNAQDKFGKTAFDISIDNGNEDLAEILQKLN

- % inhibition of HGF stimulated c-Met phosphorylation in A549 cells [1]: 94%
- IC50 of HGF stimulated c-Met phosphorylation in A549 cells [1]: 0.05 nM
- Kd [2]: 0.026 nM
- IC50 [5]: 0.95 nM
- IC50 of U87 cell proliferation (BrdU) [3]: 78 nM
B10: DARPin #60 (designed binder)
chain: MRGSHHHHHHGSDLGMKLLEAARAGQDDEVRILMANGADVNAHDTWGLTPLHLAAFHGHQEIVEVLLKHGADVNAQDFYGKTPLHLAALRGHLEIVEVLLKYGADVNAQDQFGKTAFDISIDNGNEDLAEILQKLN

- % inhibition of HGF stimulated c-Met phosphorylation in A549 cells [1]: 95%
- IC50 of HGF stimulated c-Met phosphorylation in A549 cells [1]: 0.1 nM
- Kd [2]: 0.016 nM
- IC50 [5]: 0.91 nM
B11: DARPin #48 (designed binder)
chain: MRGSHHHHHHGSDLGKKLLEAARAGQDDEVRILMANGADVNAKDRFGDTPLHLAADIGHLKIVEVLLKHGADVNAEDWFGNTPLHLAASMGHLEIVEVLLKYGADVNAMDDYGNTPLHLAANTGHLEIVEVLLKHGADVNAQDKFGKTAFDISIDNGNEDLAEILQKLN

- % inhibition of HGF stimulated c-Met phosphorylation in A549 cells [1]: 95%
- IC50 of HGF stimulated c-Met phosphorylation in A549 cells [1]: 0.07 nM
- Kd [2]: 0.011 nM
- IC50 [5]: 1.33 nM
- IC50 of U87 cell proliferation (BrdU) [3]: 400 nM
B12: DARPin #37 (designed binder)
chain: MRGSHHHHHHGSDLGKKLLEAARAGQDDEVRILMANGADVNATDLTGFTPLHLAAYYGHLEIVEVLLKYGADVNADDRYGLTPLHLAANTGHLEIVEVLLKNGADVNASDSVGTTLLHLAAYIGHPEIVEVLLKYGADVNAQDKFGKTAFDISIDNGNEDLAEILQKLN

- % inhibition of HGF stimulated c-Met phosphorylation in A549 cells [1]: 82%
- IC50 of HGF stimulated c-Met phosphorylation in A549 cells [1]: 0.39 nM
- Kd [2]: 0.16 nM
B14: DARPin #61 (designed binder)
chain: MRGSHHHHHHGSDLGKKLLEAARAGQDDEVRILMANGADVNAEDYLGHTPLHLAASTGHLEIVEVLLKYGADVNAKDRNGLTPLYLAANNGHLEIVEDLLKYGADVNADDDNGTTPLHLAAIFGHLEIVEVLLKYGADVNAQDKFGKTAFDISIDNGNEDLAEILQKLN
